Reference: article PMC5401905, “Regulation of Inducible Potassium Transporter KdpFABC by the KdpD/KdpE Two-Component System in Mycobacterium smegmatis”

Key:
[1] = target: T1, KdpE (Mycobacterium smegmatis) (UniProt A0R399); assay: DNase I footprinting; conditions: 10 mM Tris pH 7.5 (20 C), 100 mM KCl, 1 mM EDTA, 0.1 mM DTT, 5% glycerol, 0.010 mg/mL BSA, 0.5 mM Na2ATP; 25 C, 1 h; 6% native PAGE in 0.25x TBE
T1 sequence: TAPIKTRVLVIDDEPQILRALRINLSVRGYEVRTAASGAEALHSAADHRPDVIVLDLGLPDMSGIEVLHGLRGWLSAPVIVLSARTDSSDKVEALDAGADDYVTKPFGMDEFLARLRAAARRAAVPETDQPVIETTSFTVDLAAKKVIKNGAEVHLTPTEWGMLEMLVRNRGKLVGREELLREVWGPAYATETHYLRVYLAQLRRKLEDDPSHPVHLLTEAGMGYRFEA

[2] = target: T1, KdpE (Mycobacterium smegmatis); assay: EMSA; conditions: 10 mM Tris pH 7.5 (20 C), 100 mM KCl, 1 mM EDTA, 0.1 mM DTT, 5% glycerol, 0.010 mg/mL BSA, 0.5 mM Na2ATP; 25 C, 1 h; 6% native PAGE in 0.25x TBE
[3] = target: T1, KdpE (Mycobacterium smegmatis); assay: competition; conditions: 10 mM Tris pH 7.5 (20 C), 100 mM KCl, 1 mM EDTA, 0.1 mM DTT, 5% glycerol, 0.010 mg/mL BSA, 0.5 mM Na2ATP; 25 C, 1 h; 6% native PAGE in 0.25x TBE
KdpE = target: T2, KdpE (Mycobacterium smegmatis, UniProt A0R399 2-230); assay: EMSA; 0.5 mM ATP; 10 mM Tris pH 7.5 (20 C), 100 mM KCl, 1 mM EDTA, 0.1 mM DTT, 5% glycerol, 0.010 mg/mL BSA, 0.5 mM Na2ATP; 25 C, 1 h; 6% native PAGE in 0.25x TBE; conditions: protein: recombinant; tags: 6xHis (pET28a); chain copies: 2; blunt
T2 sequence: T1 sequence

“CCCGAGGCGCCGGCGCCCGGCCGAGCAGGTGCGTCGGGTGTCGGCAGGCGCGGCAGCCCGCGGAGCAAGCAGGGACATGAGCTTCGTCGAGTGGGTCACCCCTCGAACATCCATCAACCGAGCCATGACGACGAGTGTCCTGGCGGAGTCTTGGCCGCTGCTGTACAAACCTTGACGCCGCACTGACAGTCCGTCGGGAACCGCCTGTGCGCCGGCTTCGAACAAACGGTGTCAAATACGGCCGCCGCACCGTAAAGAAACCATCAAGGCCGCGTTCGCGGTCCTGAACTGGGCAGATCC (double strand) [PkdpF 300-bp probe]” was tested, and the binding [1] was “binds”, the binding [2] was “binds” and the binding [3] was “binds”.

B1: FPC-18 (dsDNA)
DNA 1: AAGAAACCATCAAGGCCG
DNA 2: CGGCCTTGATGGTTTCTT
B1: no binding (KdpE).

B2: FPC-22 (dsDNA)
DNA 1: CCGTAAAGAAACCATCAAGGCC
DNA 2: GGCCTTGATGGTTTCTTTACGG
B2: binds (KdpE).

B3: FPC-33 (dsDNA)
DNA 1: ACCGTAAAGAAACCATCAAGGCCGCGTTCGCGG
DNA 2: CCGCGAACGCGGCCTTGATGGTTTCTTTACGGT
B3: binds (KdpE).

B4: FPC-28 (dsDNA)
DNA 1: CCGTAAAGAAACCATCAAGGCCGCGTTC
DNA 2: GAACGCGGCCTTGATGGTTTCTTTACGG
B4: binds (KdpE).
